From US20140308269A1 (published 2014)
Changes are numbered by the printed parent chain.

B1: HscD (humanized 1A6 scFv HumD) (scFv)
scFv: DIQMTQSPSSLSASVGDRVTITCRASQSISNNLHWYQQKPGKAPKLLIYHASQSISGVPSRFSGSGSGTDFTLTISSLQPEDFATYYCQQSNSWPYTFGQGTKVEIKRGGGGSGGGGSGGGGSGGGGSEVQLVESGGGLVQPGGSLRLSCAASGFNIKDTYIHWVRQAPGKGLEWVARIDPANDNTIYADSVKGRFTISSDDSKNTAYLQMNSLRAEDTAVYYCTTSGYWFAYWGQGTLVTVSS
notes: not shown: carboxy-terminal His tag of vector pBAD/pIII A
B2: HscA (humanized 1A6 scFv HumA) (scFv)
scFv: B1 scFv with T226D
notes: also called humanized scFv A; scFV3; not shown: carboxy-terminal His tag of vector pBAD/pIII A
B3: HscB (humanized 1A6 scFv HumB) (scFv)
scFv: B1 scFv with T226A
notes: also called Hum19; Hum 19 scFv; not shown: carboxy-terminal His tag of vector pBAD/pIII A
B4: HscC (humanized 1A6 scFv HumC) (scFv)
scFv: B1 scFv with S200G
notes: as for B1
B5: HscF (humanized 1A6 scFv HumF) (scFv)
scFv: B1 scFv with S200A
notes: as for B1
B6: HscH (humanized 1A6 scFv HumH) (scFv)
scFv: B1 scFv with Y49K, A189D, D190P, S191K, K193Q, S200A
notes: as for B1
B7: HscI (humanized 1A6 scFv HumI) (scFv)
scFv: B1 scFv with Y49K, V165M, A189D, D190P, S191K, K193Q, I198M, S200A, D202T
notes: as for B1
B8: Msc1A6 (parental mouse monoclonal antibody 1A6 in the form of scFv) (scFv, V domains shown)
VH: EVQLQQSGAELVKPGASLKLSCTASGFNIKDTYIHWMKQRPEQGLEWIGRIDPANDNTIYDPKVQGKATMTADTSSNTAYLQLNSLTSEDTAVYYCTTSGYWFAYWGQGTLVTVSS
VL: DIVLTQSPATLSVTPGDSVSLSCRASQSISNNLHWYQQKHSESPRLLIKHASQSISGIPSRFSGSGSGTDFTLSINSVETEDFGMFFCQQSNSWPYTFGGGTKLEIKR
notes: Tested as a single-chain Fv (one polypeptide); also called Mouse 1A6 scFv; mouse IA6 scFv

The binders below were run against T1, soluble ICAM-1 (Bender MedSystems) (UniProt P05362 28-480, limits assumed) (assay: ELISA on plate-coated soluble ICAM-1; reference Msc1A6).
T1 construct: Bought soluble protein coated on the ELISA plate
Description: (§1) To evaluate the binding affinity of histidine-tagged human single chain (hsc) proteins soluble ICAM was used in an ELISA assay. A 96-well EIA plate (Corning, Inc.) was coated with 100 μl/well soluble ICAM-1 (Bender MedSystems) at 1 μg/ml in 0.1 M. NaHCO₃. After washing with TBST (50 mM Tris, pH8.0, 150 mM NaCl, 0.05% Tween-20), the plate was blocked with 3% non-fat milk in TBST at 37° C. for 1 hour. After washing with TBST, the plate was incubated with scFv samples (100 μl/well) diluted in 1% non-fat milk/TBST solution at room temperature for 1 hour. After washing with TBST, the horse radish peroxidase-conjugated anti-His (C-term) antibody (Invitrogen) diluted 1:2000 in 1% non-fat milk/TBST was added and the plate was incubated at room temperature for 1 hour. The plate was washed thoroughly with TBST and 100 μl/well 3,3′,5,5′-tetramethylbenzidine substrate solution (Kirkegaard and Perry Laboratories) was added. After 5 min incubation, the color development was stopped by adding […] 0.12 N HCl and the absorbance of the wells at 450 nm was measured by a plate reader (ICN).

T1 sequence (P05362 28-480 limits assumed): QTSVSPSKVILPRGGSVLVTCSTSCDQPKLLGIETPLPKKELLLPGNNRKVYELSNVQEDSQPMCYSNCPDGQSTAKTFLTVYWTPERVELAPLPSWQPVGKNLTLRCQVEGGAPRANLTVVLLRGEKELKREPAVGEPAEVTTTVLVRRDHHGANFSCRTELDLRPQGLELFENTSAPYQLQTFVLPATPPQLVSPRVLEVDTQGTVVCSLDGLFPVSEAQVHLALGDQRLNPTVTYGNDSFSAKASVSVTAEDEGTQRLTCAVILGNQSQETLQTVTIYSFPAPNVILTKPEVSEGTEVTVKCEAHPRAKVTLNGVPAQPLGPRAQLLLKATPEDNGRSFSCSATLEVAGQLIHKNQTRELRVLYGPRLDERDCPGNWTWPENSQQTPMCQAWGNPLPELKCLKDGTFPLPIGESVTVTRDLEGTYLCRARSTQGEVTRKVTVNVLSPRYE

Row | Binder | fold higher binding affinity than the parental mouse scFv [fold]
1 | B1 | > 10
2 | B2 | > 10
3 | B3 | > 10
4 | B4 | > 10
5 | B5 | > 10
6 | B6 | > 10
7 | B7 | > 10

Each binder was assayed against T2, ICAM-1 on HeLa cells (UniProt P05362 28-532, limits assumed) (assay: cell-based or functional assay).
T2 sequence (P05362 28-532 limits assumed): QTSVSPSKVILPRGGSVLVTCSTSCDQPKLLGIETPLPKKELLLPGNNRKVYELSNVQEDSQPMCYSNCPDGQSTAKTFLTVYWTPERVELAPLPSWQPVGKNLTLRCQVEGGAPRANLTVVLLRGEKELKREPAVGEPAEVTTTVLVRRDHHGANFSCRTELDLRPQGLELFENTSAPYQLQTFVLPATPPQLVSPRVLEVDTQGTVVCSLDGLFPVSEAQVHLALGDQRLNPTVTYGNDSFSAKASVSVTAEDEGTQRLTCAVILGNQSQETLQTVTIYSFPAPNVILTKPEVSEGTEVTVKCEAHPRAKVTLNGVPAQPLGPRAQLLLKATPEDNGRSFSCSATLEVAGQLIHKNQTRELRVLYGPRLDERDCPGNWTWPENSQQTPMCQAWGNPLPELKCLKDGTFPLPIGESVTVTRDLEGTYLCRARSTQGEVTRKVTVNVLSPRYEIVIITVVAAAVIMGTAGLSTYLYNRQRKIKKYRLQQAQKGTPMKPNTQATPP

Row | Binder | EC 50 (µM): 50% protection of HeLa cells against HRV15 infection at 1 MOI [µM]
8 | B8 | > 10
9 | B1 | 0.05
10 | B5 | 0.29
11 | B6 | 4.2
12 | B7 | > 10

Target: T2, ICAM-1 on HeLa cells
Assay: cell-based or functional assay
Remark: another data set of the same source

Row | Binder | EC50 of protection of HeLa cells from HRV infection, against the parental mouse 1A6 scFv protein [fold]
13 | B3 | > 60

Each binder was assayed against T1, soluble ICAM-1 (Bender MedSystems) (assay: ELISA on plate-coated soluble ICAM-1, His-tagged scFv detected with anti-His-HRP).
Description: as §1

Row | Binder | Kd [nM]
14 | B8 | 1180
15 | B1 | 23.3
16 | B2 | 150
17 | B3 | 26.2
18 | B4 | 58
19 | B5 | 46
20 | B6 | 20.9
21 | B7 | 150
